To fix the notation:
B1: library; a variant is named by its letters at N, in order (parent)
chain: AATGTTGTTGATGCAACCATAAAGTGATATTTAATAATTATTTATAATCAGCAACTTAACCACAAAACAACCATATATTGATATNTCACAAAACAACCATAANTTGATATTTTTGTGAATCGAGTATTTCAGCAAAACTACTGCAGTAAGAA

± gives the standard deviation of the averaged measurements.

Variants of B1 are the subject of series [1]. Nature of the series: relative integration efficiency (T-LR orientation) vs wild-type transposon end (log2 (normalized fold change)); transposon end mutated: left end; higher = more efficient transposition. As to conditions: with VchCAST RNA-guided transposition machinery (E. coli BL21(DE3) host, lacZ target). In outline:
(§1)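 Relative integration efficiency is a fold change of output over input barcode abundance, normalised to reference barcodes and log-transformed. Input plasmids and genomic integration junctions were PCR-amplified and Illumina-sequenced from E. coli BL21(DE3) co-transformed with a T7-driven effector plasmid and pUC57 donor pools of 1549 left-end or 1849 right-end transposon variants. Plating was done with 0.1 mM IPTG at 37°C for 18 h, with two biological output replicates and four reference barcodes.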

Series [2] covers variants of B1. Put plainly: relative integration efficiency (T-RL orientation) vs wild-type transposon end (log2 (normalized fold change)); transposon end mutated: left end; higher = more efficient transposition. To be noted: with VchCAST RNA-guided transposition machinery (E. coli BL21(DE3) host, lacZ target). In outline:
as §1

For AATGTTGTTGATGCAACCATAAAGTGAATAATAATAATTATTTATAATCAGCAACTTAACCACAAAACAACCATATATTGATATCTCACAAAACAACCATAAGTTGATATTTTTGTGAATCGAGTATTTCAGCAAAACTACTGCAGTAAGAA, the “relative integration efficiency (log2)” value in series [1] was -0.974 ± 0.69; in series [2], -1.12 ± 0.46.
AATGTTGTTGATGCAACCATAAAGTGAAATTTAATAATTATTTATAATCAGCAACTTAACCACAAAACAACCATATATTGAAATCTCACAAAACAACCATAAGTTGAAATTTTTGTGAATCGAGTATTTCAGCAAAACTACTGCAGTAAGAA: the “relative integration efficiency (log2)” value was -2.22 ± 2.1 in series [1] and -1.09 ± 0.57 in series [2].
In the case of AATGTTGTTGATGCAACCATAAAGAGATATTTAATAATTATTTATAATCAGCAACTTAACCACAAAACAACCATATATAGATATCTCACAAAACAACCATAAGTAGATATTTTTGTGAATCGAGTATTTCAGCAAAACTACTGCAGTAAGAA, the “relative integration efficiency (log2)” value was -3.4 ± 0.079 in series [1] and -1.88 ± 0.86 in series [2].
The matching figures for AATGTTGTTGATGCAACCAGCAAGTGATATTTAATAATTATTTATAATCAGCAACTTAACCACAAAACAACCATATATTGATATCTCACAAAACAACCATAAGTTGATATTTTTGTGAATCGAGTATTTCAGCAAAACTACTGCAGTAAGAA: -2.47 ± 0.87 and -2.18 ± 0.77.
Turning to AATGTTGTTGATGCAACCATAAAGCGATATTTAATAATTATTTATAATCAGCAACTTAACCACAAAACAACCATATATTGATATCTCACAAAACAACCATAAGTTGATATTTTTGTGAATCGAGTATTTCAGCAAAACTACTGCAGTAAGAA, the figures for the “relative integration efficiency (log2)” value in series [1] and in series [2] were 0.0625 ± 0.14 and -0.137 ± 0.12, respectively.
The matching figures for AATGTTGTTGATGCAACCATAAAGGGATATTTAATAATTATTTATAATCAGCAACTTAACCACAAAACAACCATATATTGATATCTCACAAAACAACCATAAGTTGATATTTTTGTGAATCGAGTATTTCAGCAAAACTACTGCAGTAAGAA: -0.618 ± 1 and -0.455 ± 0.37.
For AATGTTGTTGATGCAACCATAAAGAGATATTTAATAATTATTTATAATCAGCAACTTAACCACAAAACAACCATATATTGATATCTCACAAAACAACCATAAGTTGATATTTTTGTGAATCGAGTATTTCAGCAAAACTACTGCAGTAAGAA the same measures were -0.158 ± 0.68 and -0.346 ± 0.3.
Consider AATGTTGTTGATGCAACCAGAAAGTGATATTTAATAATTATTTATAATCAGCAACTTAACCACAAAACAACCATATATTGATATCTCACAAAACAACCATAAGTTGATATTTTTGTGAATCGAGTATTTCAGCAAAACTACTGCAGTAAGAA, for which the “relative integration efficiency (log2)” value in series [1] is -0.668 ± 0.64; in series [2] it was -0.834 ± 0.6.
Consider AATGTTGTTGATGCAACCACAAAGTGATATTTAATAATTATTTATAATCAGCAACTTAACCACAAAACAACCATATATTGATATCTCACAAAACAACCATAAGTTGATATTTTTGTGAATCGAGTATTTCAGCAAAACTACTGCAGTAAGAA, for which the figures for the “relative integration efficiency (log2)” value in series [1] and in series [2] were -1.08 ± 0.45 and -1.07 ± 0.49, respectively.
For AATGTTGTTGATGCAACCATAAAGACTAATTTAATAATTATTTATAATCAGCAACTTAACCACAAAACAACCATATATTGATATCTCACAAAACAACCATAAGTTGATATTTTTGTGAATCGAGTATTTCAGCAAAACTACTGCAGTAAGAA the same measures were -2.09 ± 0.86 and -2.28 ± 0.71.
In the case of AATGTTGTTGATGCAACCATAAAGGTCGATTTAATAATTATTTATAATCAGCAACTTAACCACAAAACAACCATATATTGATATCTCACAAAACAACCATAAGTTGATATTTTTGTGAATCGAGTATTTCAGCAAAACTACTGCAGTAAGAA, the “relative integration efficiency (log2)” value in series [1] was -2.73 ± 1.1; in series [2], -2.55 ± 0.99.
As for AATGTTGTTGATGCAACCAAAAAGTGATATTTAATAATTATTTATAATCAGCAACTTAACCACAAAACAACCAAATATTGATATCTCACAAAACAACCAAAAGTTGATATTTTTGTGAATCGAGTATTTCAGCAAAACTACTGCAGTAAGAA, the results for the “relative integration efficiency (log2)” value in series [1] and in series [2] were -1.01 ± 0.38 and -1.12 ± 0.54, respectively.
For AATGTTGTTGATGCAACCATAAAGACATATTTAATAATTATTTATAATCAGCAACTTAACCACAAAACAACCATATATTGATATCTCACAAAACAACCATAAGTTGATATTTTTGTGAATCGAGTATTTCAGCAAAACTACTGCAGTAAGAA the same measures were -1.33 ± 1.5 and -1.73 ± 0.85.
Turning to AATGTTGTTGATGCAACCATAAAGGTATATTTAATAATTATTTATAATCAGCAACTTAACCACAAAACAACCATATATTGATATCTCACAAAACAACCATAAGTTGATATTTTTGTGAATCGAGTATTTCAGCAAAACTACTGCAGTAAGAA, the “relative integration efficiency (log2)” value in series [1] was -0.611 ± 0.7; in series [2], -0.737 ± 0.33.
Take AATGTTGTTGATGCAACCATAAAGGGATATTTAATAATTATTTATAATCAGCAACTTAACCACAAAACAACCATATATGGATATCTCACAAAACAACCATAAGTGGATATTTTTGTGAATCGAGTATTTCAGCAAAACTACTGCAGTAAGAA: the “relative integration efficiency (log2)” value in series [1] is -3.03 ± 1.7; in series [2] it was -2.73 ± 1.2.
Regarding AATGTTGTTGATGCAACCATAAAGTGAAATTTAATAATTATTTATAATCAGCAACTTAACCACAAAACAACCATATATTGATATCTCACAAAACAACCATAAGTTGATATTTTTGTGAATCGAGTATTTCAGCAAAACTACTGCAGTAAGAA, the entries for the “relative integration efficiency (log2)” value in series [1] and in series [2] were -0.399 ± 0.64 and -0.37 ± 0.28, respectively.
Turning to AATGTTGTTGATGCAACCATAAAGTGACATTTAATAATTATTTATAATCAGCAACTTAACCACAAAACAACCATATATTGATATCTCACAAAACAACCATAAGTTGATATTTTTGTGAATCGAGTATTTCAGCAAAACTACTGCAGTAAGAA, the “relative integration efficiency (log2)” value is -0.0735 ± 0.44 in series [1] and -0.273 ± 0.15 in series [2].
Turning to AATGTTGTTGATGCAACCAGCCCGTGATATTTAATAATTATTTATAATCAGCAACTTAACCACAAAACAACCATATATTGATATCTCACAAAACAACCATAAGTTGATATTTTTGTGAATCGAGTATTTCAGCAAAACTACTGCAGTAAGAA, the “relative integration efficiency (log2)” value is -2.4 ± 0.83 in series [1] and -3.18 ± 0.88 in series [2].
Turning to AATGTTGTTGATGCAACCATAAAGTGAATTTTAATAATTATTTATAATCAGCAACTTAACCACAAAACAACCATATATTGATATCTCACAAAACAACCATAAGTTGATATTTTTGTGAATCGAGTATTTCAGCAAAACTACTGCAGTAAGAA, the “relative integration efficiency (log2)” value is -0.0554 ± 0.23 in series [1] and -0.309 ± 0.44 in series [2].

The values are drawn from the supplement of paper PMC10201428.
